Experimental data published in patent publication US20210404962A1.

What was measured:
[1] = molecular target: GFP1-10 (large fragment of GFP) (Aequorea victoria (Water jellyfish) (Mesonema victoria)) [GFP: P42212]; experiment: fluorescence increase over time with varied GFP11 peptide and purified GFP1-10 at 3 mM, one site binding model
[2] = molecular target: GFP1-10 (large fragment of GFP) (Aequorea victoria (Water jellyfish) (Mesonema victoria)) [GFP: P42212]; experiment: fluorescence reconstitution, pseudo-first order, one phase association fit
[3] = molecular target: GFP1-10 (large fragment of GFP) (Aequorea victoria (Water jellyfish) (Mesonema victoria)) [GFP: P42212]; experiment: stopped-flow fluorescence reconstitution, pseudo-first order, one phase association fit; 50 nM GFP11, excess GFP1-10
[4] = molecular target: GFP1-10 (large fragment of GFP) (Aequorea victoria (Water jellyfish) (Mesonema victoria)) [GFP: P42212]; experiment: fluorescence reconstitution, pseudo-first order, one phase association fit; GFP11 concentration not stated
[5] = molecular target: GFP1-10 (large fragment of GFP) (Aequorea victoria (Water jellyfish) (Mesonema victoria)) [GFP: P42212]; experiment: fluorescence reconstitution kinetics, calculated from kobs at varied GFP11 concentrations

GFP11 peptide (chemically synthesized small fragment of split GFP; variant not stated)
Kd [1]: 481 µM
half time [2]: 95 s
kobs [3]: 0.003 s⁻¹
kobs [4]: 0.007 s⁻¹
kon [5]: 760000 M⁻¹ s⁻¹
